This is an account of results in patent US8278415B2 (Centocor, Inc., dated 2012).

Read-outs that look alike come from different tables or passages of the source.

What all share (assay): phage ELISA on coated sEGFR-MMB, chemiluminescence (background typically <200 units)
In general terms: ELISA stands for enzyme-linked immunosorbent assay.

Assay [1] concerns the target sEGFR-MMB (human).
The target in assay [2] is sEGFR-MMB (human). The source holds these as a separate data set.
Assay [3] concerns the target sEGFR-MMB (human). The source holds these as a separate data set.
Assay [4] deals with sEGFR-MMB (human). The source holds these as a separate data set.
Assay [5] addresses sEGFR-MMB (human). The source holds these as a separate data set.

sEGFR-MMB (human), sequence (chain, as listed by the source limits assumed): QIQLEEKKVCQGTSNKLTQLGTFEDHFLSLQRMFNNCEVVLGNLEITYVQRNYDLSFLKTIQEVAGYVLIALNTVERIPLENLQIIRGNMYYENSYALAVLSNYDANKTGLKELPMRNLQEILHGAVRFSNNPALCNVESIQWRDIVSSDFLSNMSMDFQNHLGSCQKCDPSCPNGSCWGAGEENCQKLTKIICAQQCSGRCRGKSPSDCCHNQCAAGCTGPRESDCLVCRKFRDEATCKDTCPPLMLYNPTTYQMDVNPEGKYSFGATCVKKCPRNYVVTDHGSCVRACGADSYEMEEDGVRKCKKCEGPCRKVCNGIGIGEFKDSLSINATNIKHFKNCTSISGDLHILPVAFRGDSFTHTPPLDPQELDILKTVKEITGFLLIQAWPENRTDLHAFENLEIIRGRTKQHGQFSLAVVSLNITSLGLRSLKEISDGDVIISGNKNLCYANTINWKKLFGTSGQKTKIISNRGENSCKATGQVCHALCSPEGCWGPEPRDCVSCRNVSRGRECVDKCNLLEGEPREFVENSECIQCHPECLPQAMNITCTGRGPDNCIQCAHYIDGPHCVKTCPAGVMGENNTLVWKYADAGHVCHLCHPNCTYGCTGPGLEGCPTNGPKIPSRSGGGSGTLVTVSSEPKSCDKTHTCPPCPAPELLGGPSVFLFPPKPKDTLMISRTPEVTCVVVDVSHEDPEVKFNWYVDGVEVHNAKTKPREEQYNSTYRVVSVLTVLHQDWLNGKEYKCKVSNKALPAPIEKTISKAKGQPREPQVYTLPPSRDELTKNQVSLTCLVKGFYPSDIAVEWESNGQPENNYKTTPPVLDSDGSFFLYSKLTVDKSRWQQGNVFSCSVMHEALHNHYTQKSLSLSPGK

Take HVSLQSLPELICVVS [S15 library phage peptide of SEQ ID NO: 14]: in the assay with sEGFR-MMB [1], the ELISA is 1360 units. Consider YDCMIRADGSLICWC [S19 library phage peptide of SEQ ID NO: 38], for which the ELISA with sEGFR-MMB [2] came out at 1290 units.

In the assay with sEGFR-MMB [1], LPDDSLPELICKVRG [P175] yielded an ELISA of 6790 units. For the molecule MICYLVDSGNIICYK [P180], the ELISA with sEGFR-MMB [2] stood at 8810 units. On to RACITFGKVVYCEV [S18 library phage peptide of SEQ ID NO: 29], for which the ELISA with sEGFR-MMB [3] came out at 30700 units. Still for that read-out and setting: in the case of SDCVLFGSKLFCSA [S18 library phage peptide of SEQ ID NO: 32] it was 35300 units. In the assay with sEGFR-MMB [2], GPCVLIRDYYLLCLE [P179] had an ELISA of 14000 units. PIDDESLPVLYCVTS [S15 library phage peptide of SEQ ID NO: 17]: the ELISA with sEGFR-MMB [1] turned out to be 1780 units. Take AFCRLDFNQWLTCLV [S19 library phage peptide of SEQ ID NO: 40]: the ELISA with sEGFR-MMB [2] turned out to be 2580 units. Consider YDCVSFGAVAYCPQ [S18 library phage peptide of SEQ ID NO: 34], for which the ELISA with sEGFR-MMB [3] worked out at 3200 units. In the case of KTCVSTTFDLWFVCFA [P176], the ELISA in the assay with sEGFR-MMB [4] turned out to be 37400 units. For the molecule LPDLICAVDSGTSGA [S15 library phage peptide of SEQ ID NO: 21], the ELISA with sEGFR-MMB [1] worked out at 1160 units.

TDCVIFGLETYCLR [P173]: in the assay with sEGFR-MMB [3], the ELISA turned out to be 37900 units. For STITSLPTLQCWPIL [S15 library phage peptide of SEQ ID NO: 16], in the assay with sEGFR-MMB [1], the ELISA is 13300 units.

In the assay with sEGFR-MMB [3], TDCVRFGETIYCIV [S18 library phage peptide of SEQ ID NO: 33] returned an ELISA of 13300 units. In the assay with sEGFR-MMB [4], PTCDSATRRVLTICAD [S20 library phage peptide of SEQ ID NO: 43] came in with an ELISA of 5420 units. ELGLPTLLCWPTDTL [S15 library phage peptide of SEQ ID NO: 11] displayed an ELISA with sEGFR-MMB [1] of 9380 units.

In the assay with sEGFR-MMB [3], AGCIAFVDVVYCAR [S18 library phage peptide of SEQ ID NO: 23] displayed an ELISA of 6380 units. For VSGILPILVCHPAAT [S15 library phage peptide of SEQ ID NO: 12], the ELISA with sEGFR-MMB [1] was 1110 units. GADTLPDLLCWESSL [S15 library phage peptide of SEQ ID NO: 19]: in the assay with sEGFR-MMB [1], the ELISA was found to be 5720 units. YRLFVDESIFFCTRL [S15 library phage peptide of SEQ ID NO: 10] displayed an ELISA with sEGFR-MMB [1] of 3080 units. On to DACTMVFLWCSL [P177], for which the ELISA with sEGFR-MMB [5] worked out at 8660 units. For TVFTLPELVCVVAGT [S15 library phage peptide of SEQ ID NO: 20], the ELISA with sEGFR-MMB [1] is 1520 units. RGCVVFGDNIYCIV [S18 library phage peptide of SEQ ID NO: 35] yielded an ELISA with sEGFR-MMB [3] of 22000 units.

In the assay with sEGFR-MMB [3], KHCILFEKTVYCAK [S18 library phage peptide of SEQ ID NO: 26] returned an ELISA of 9110 units. With TDCIRFGVLWYCLV [S18 library phage peptide of SEQ ID NO: 28], the ELISA with sEGFR-MMB [3] amounted to 4750 units.

As for RWCYFWWITICEL [P178], in the assay with sEGFR-MMB [5], the ELISA turned out to be 7910 units. The molecule AYCSFVAGDLVCQV [S18 library phage peptide of SEQ ID NO: 30] came in with an ELISA with sEGFR-MMB [3] of 19800 units. Consider SGCLDALWQCVY [P174], for which, in the assay with sEGFR-MMB [5], the ELISA was 34600 units.

CDCREAVSASLVCRY [S19 library phage peptide of SEQ ID NO: 41]: the ELISA with sEGFR-MMB [2] worked out at 3350 units. Molecule DSCCSFLTDGTVVCSL [S20 library phage peptide of SEQ ID NO: 45] had an ELISA with sEGFR-MMB [4] of 9540 units. NWFSLPTLLCFPLNP [S15 library phage peptide of SEQ ID NO: 15]: the ELISA in the assay with sEGFR-MMB [1] was 3670 units. WMCFLEGYGASLMCQC [S20 library phage peptide of SEQ ID NO: 44] came in with an ELISA with sEGFR-MMB [4] of 4800 units.

Consider PIFSSLPVLYCTSQL [S15 library phage peptide of SEQ ID NO: 18], for which the ELISA in the assay with sEGFR-MMB [1] was 1420 units. The molecule RDCIIFDKTVYCVI [S18 library phage peptide of SEQ ID NO: 25] yielded an ELISA with sEGFR-MMB [3] of 17100 units.

Take SVCVGTAFPGWMVCGP [S20 library phage peptide of SEQ ID NO: 47]: the ELISA in the assay with sEGFR-MMB [4] came to 4770 units. In the assay with sEGFR-MMB [3], DSCIQFANLLYCAI [S18 library phage peptide of SEQ ID NO: 27] gave an ELISA of 53200 units. In the assay with sEGFR-MMB [3], AKCIAFGNSVYCLN [S18 library phage peptide of SEQ ID NO: 24] yielded an ELISA of 31500 units.

In turn, LLCATTSFRDWFVCFT [S20 library phage peptide of SEQ ID NO: 49] showed an ELISA in the assay with sEGFR-MMB [4] of 4510 units. Still for that read-out and setting: in the case of YICTPSDIDSWYICYL [S20 library phage peptide of SEQ ID NO: 46] it was 6620 units.
